Test results reported in article PMC8430995.

B1: K8 WT/K18 WT (transfected), P05787;P05783 K8:G434S (protein)
chain 1: MSIRVTQKSYKVSTSGPRAFSSRSYTSGPGSRISSSSFSRVGSSNFRGGLGGGYGGASGMGGITAVTVNQSLLSPLVLEVDPNIQAVRTQEKEQIKTLNNKFASFIDKVRFLEQQNKMLETKWSLLQQQKTARSNMDNMFESYINNLRRQLETLGQEKLKLEAELGNMQGLVEDFKNKYEDEINKRTEMENEFVLIKKDVDEAYMNKVELESRLEGLTDEINFLRQLYEEEIRELQSQISDTSVVLSMDNSRSLDMDSIIAEVKAQYEDIANRSRAEAESMYQIKYEELQSLAGKHGDDLRRTKTEISEMNRNISRLQAEIEGLKGQRASLEAAIADAEQRGELAIKDANAKLSELEAALQRAKQDMARQLREYQELMNVKLALDIEIATYRKLLEGEESRLESGMQNMSIHTKTTSGYAGGLSSAYGGLTSPSLSYSLGSSFGSGAGSSSFSRTSSSRAVVVKKIETRDGKLVSESSDVLPK
chain 2: MSFTTRSTFSTNYRSLGSVQAPSYGARPVSSAASVYAGAGGSGSRISVSRSTSFRGGMGSGGLATGIAGGLAGMGGIQNEKETMQSLNDRLASYLDRVRSLETENRRLESKIREHLEKKGPQVRDWSHYFKIIEDLRAQIFANTVDNARIVLQIDNARLAADDFRVKYETELAMRQSVENDIHGLRKVIDDTNITRLQLETEIEALKEELLFMKKNHEEEVKGLQAQIASSGLTVEVDAPKSQDLAKIMADIRAQYDELARKNREELDKYWSQQIEESTTVVTTQSAEVGAAETTLTELRRTVQSLEIDLDSMRNLKASLENSLREVEARYALQMEQLNGILLHLESELAQTRAEGQRQAQEYEALLNIKVKLEAEIATYRRLLEDGEDFNLGDALDSSNSMQTIQKTTTRRIVDGKVVSETNDTKVLRH
B2: K8 WT/K18 WT (transfected), P05787;P05783 K8:R302C (protein)
chain 1: MSIRVTQKSYKVSTSGPRAFSSRSYTSGPGSRISSSSFSRVGSSNFRGGLGGGYGGASGMGGITAVTVNQSLLSPLVLEVDPNIQAVRTQEKEQIKTLNNKFASFIDKVRFLEQQNKMLETKWSLLQQQKTARSNMDNMFESYINNLRRQLETLGQEKLKLEAELGNMQGLVEDFKNKYEDEINKRTEMENEFVLIKKDVDEAYMNKVELESRLEGLTDEINFLRQLYEEEIRELQSQISDTSVVLSMDNSRSLDMDSIIAEVKAQYEDIANRSRAEAESMYQIKYEELQSLAGKHGDDLRCTKTEISEMNRNISRLQAEIEGLKGQRASLEAAIADAEQRGELAIKDANAKLSELEAALQRAKQDMARQLREYQELMNVKLALDIEIATYRKLLEGEESRLESGMQNMSIHTKTTSGYAGGLSSAYGGLTSPGLSYSLGSSFGSGAGSSSFSRTSSSRAVVVKKIETRDGKLVSESSDVLPK
chain 2: MSFTTRSTFSTNYRSLGSVQAPSYGARPVSSAASVYAGAGGSGSRISVSRSTSFRGGMGSGGLATGIAGGLAGMGGIQNEKETMQSLNDRLASYLDRVRSLETENRRLESKIREHLEKKGPQVRDWSHYFKIIEDLRAQIFANTVDNARIVLQIDNARLAADDFRVKYETELAMRQSVENDIHGLRKVIDDTNITRLQLETEIEALKEELLFMKKNHEEEVKGLQAQIASSGLTVEVDAPKSQDLAKIMADIRAQYDELARKNREELDKYWSQQIEESTTVVTTQSAEVGAAETTLTELRRTVQSLEIDLDSMRNLKASLENSLREVEARYALQMEQLNGILLHLESELAQTRAEGQRQAQEYEALLNIKVKLEAEIATYRRLLEDGEDFNLGDALDSSNSMQTIQKTTTRRIVDGKVVSETNDTKVLRH
B3: K8 WT/K18 WT (transfected), P05787;P05783 K18:D238E; K18:D396E (protein)
chain 1: MSIRVTQKSYKVSTSGPRAFSSRSYTSGPGSRISSSSFSRVGSSNFRGGLGGGYGGASGMGGITAVTVNQSLLSPLVLEVDPNIQAVRTQEKEQIKTLNNKFASFIDKVRFLEQQNKMLETKWSLLQQQKTARSNMDNMFESYINNLRRQLETLGQEKLKLEAELGNMQGLVEDFKNKYEDEINKRTEMENEFVLIKKDVDEAYMNKVELESRLEGLTDEINFLRQLYEEEIRELQSQISDTSVVLSMDNSRSLDMDSIIAEVKAQYEDIANRSRAEAESMYQIKYEELQSLAGKHGDDLRRTKTEISEMNRNISRLQAEIEGLKGQRASLEAAIADAEQRGELAIKDANAKLSELEAALQRAKQDMARQLREYQELMNVKLALDIEIATYRKLLEGEESRLESGMQNMSIHTKTTSGYAGGLSSAYGGLTSPGLSYSLGSSFGSGAGSSSFSRTSSSRAVVVKKIETRDGKLVSESSDVLPK
chain 2: MSFTTRSTFSTNYRSLGSVQAPSYGARPVSSAASVYAGAGGSGSRISVSRSTSFRGGMGSGGLATGIAGGLAGMGGIQNEKETMQSLNDRLASYLDRVRSLETENRRLESKIREHLEKKGPQVRDWSHYFKIIEDLRAQIFANTVDNARIVLQIDNARLAADDFRVKYETELAMRQSVENDIHGLRKVIDDTNITRLQLETEIEALKEELLFMKKNHEEEVKGLQAQIASSGLTVEVEAPKSQDLAKIMADIRAQYDELARKNREELDKYWSQQIEESTTVVTTQSAEVGAAETTLTELRRTVQSLEIDLDSMRNLKASLENSLREVEARYALQMEQLNGILLHLESELAQTRAEGQRQAQEYEALLNIKVKLEAEIATYRRLLEDGEDFNLGDALESSNSMQTIQKTTTRRIVDGKVVSETNDTKVLRH
B4: K8 WT/K18 WT (transfected), P05787;P05783 K8:G62C (protein)
chain 1: MSIRVTQKSYKVSTSGPRAFSSRSYTSGPGSRISSSSFSRVGSSNFRGGLGGGYGGASGMGCITAVTVNQSLLSPLVLEVDPNIQAVRTQEKEQIKTLNNKFASFIDKVRFLEQQNKMLETKWSLLQQQKTARSNMDNMFESYINNLRRQLETLGQEKLKLEAELGNMQGLVEDFKNKYEDEINKRTEMENEFVLIKKDVDEAYMNKVELESRLEGLTDEINFLRQLYEEEIRELQSQISDTSVVLSMDNSRSLDMDSIIAEVKAQYEDIANRSRAEAESMYQIKYEELQSLAGKHGDDLRRTKTEISEMNRNISRLQAEIEGLKGQRASLEAAIADAEQRGELAIKDANAKLSELEAALQRAKQDMARQLREYQELMNVKLALDIEIATYRKLLEGEESRLESGMQNMSIHTKTTSGYAGGLSSAYGGLTSPGLSYSLGSSFGSGAGSSSFSRTSSSRAVVVKKIETRDGKLVSESSDVLPK
chain 2: MSFTTRSTFSTNYRSLGSVQAPSYGARPVSSAASVYAGAGGSGSRISVSRSTSFRGGMGSGGLATGIAGGLAGMGGIQNEKETMQSLNDRLASYLDRVRSLETENRRLESKIREHLEKKGPQVRDWSHYFKIIEDLRAQIFANTVDNARIVLQIDNARLAADDFRVKYETELAMRQSVENDIHGLRKVIDDTNITRLQLETEIEALKEELLFMKKNHEEEVKGLQAQIASSGLTVEVDAPKSQDLAKIMADIRAQYDELARKNREELDKYWSQQIEESTTVVTTQSAEVGAAETTLTELRRTVQSLEIDLDSMRNLKASLENSLREVEARYALQMEQLNGILLHLESELAQTRAEGQRQAQEYEALLNIKVKLEAEIATYRRLLEDGEDFNLGDALDSSNSMQTIQKTTTRRIVDGKVVSETNDTKVLRH

Target: Akt WT (transfected), P31749
Sequence (P31749 whole entry): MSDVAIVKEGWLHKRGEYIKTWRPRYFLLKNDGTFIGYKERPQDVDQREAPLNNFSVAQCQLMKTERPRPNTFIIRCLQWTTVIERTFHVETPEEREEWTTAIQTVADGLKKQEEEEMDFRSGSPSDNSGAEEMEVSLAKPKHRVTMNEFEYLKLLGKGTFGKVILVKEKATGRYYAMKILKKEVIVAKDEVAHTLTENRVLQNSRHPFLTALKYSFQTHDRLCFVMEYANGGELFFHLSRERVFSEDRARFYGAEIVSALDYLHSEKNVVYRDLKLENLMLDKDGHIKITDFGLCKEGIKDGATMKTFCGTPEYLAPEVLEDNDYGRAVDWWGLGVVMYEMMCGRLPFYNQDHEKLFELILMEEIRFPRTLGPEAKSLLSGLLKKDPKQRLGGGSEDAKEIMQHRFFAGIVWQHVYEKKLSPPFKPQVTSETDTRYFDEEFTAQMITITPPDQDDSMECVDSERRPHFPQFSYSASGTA
Experiment: co-immunoprecipitation (K8/K18 IP, Akt immunoblot, quantified)
Conditions: chain shown with the change, BHK-21 cells transfected with Akt WT, parent: est. 1.0, read off a plot

Row | Binder | ratio to parent (K18 WT and the K8 mutant) | ratio to parent (K8 WT and the K18 mutant)
1 | B1 | 1.2 | 
2 | B2 | 1.8 | 
3 | B3 |  | 1.2
4 | B4 | 1.7 | 
